From PMC10150220

Target: GST-FKBP12
Test: AUC; sedimentation equilibrium of GST-FKBP12, seven serial two-fold dilutions from 320 µM, 3000-12 000 r.p.m., about 14 h, absorbance at 230 and 280 nm, Sedphat

GST-FKBP12
stoichiometry N: 2
